Assay results from the supplement of paper PMC10201428.
± gives the standard deviation of the averaged measurements.

B1: library; a variant is named by its letters at N, in order (parent)
chain: AATGTTGTTGATGCAACCATAAAGTGATATTTAATAATTATTTATAATCAGCAACTTAACCACAAAACAACCATATATTGATATNTCACAAAACAACCATAANTTGATATTTTTGTGAATCGAGTATTTCAGCAAAACTACTGCAGTAAGAA

How the values were obtained:
[1] = variants of: B1; assay: relative integration efficiency (T-LR orientation) vs wild-type transposon end (log2 (normalized fold change)); transposon end mutated: left end; higher = more efficient transposition; conditions: with VchCAST RNA-guided transposition machinery (E. coli BL21(DE3) host, lacZ target)
Method: (§1)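 Pooled, barcoded VchCAST (Tn6677) mini-transposon donor libraries; each variable transposon-end sequence sits in a fixed pDonor mini-transposon context (10-bp barcode and cargo not included). Left- or right-end libraries were co-transformed with pEffector (TniQ-Cascade, TnsABC, lacZ crRNA, T7, 0.1 mM IPTG) into E. coli BL21(DE3) and grown 18 h at 37 C. T-LR and T-RL junction amplicons were sequenced; output/input barcode fold change was normalised to the mean of four wild-type barcodes and log2-transformed. Two biological replicates; zero-count/undetected variants carry floor values (-10 / -15), censored here. Barcode uncoupling by PCR recombination adds noise.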

[2] = variants of: B1; assay: relative integration efficiency (T-RL orientation) vs wild-type transposon end (log2 (normalized fold change)); transposon end mutated: left end; higher = more efficient transposition; conditions: with VchCAST RNA-guided transposition machinery (E. coli BL21(DE3) host, lacZ target)
Method: as §1

Variant | relative integration efficiency (log2) [1] | relative integration efficiency (log2) [2]
AATGTTGTTGATGCACCCATAAATTGATATTGCATAATTATTTATAATCAGCAACTTAACCACAAAACAACCATAAAATGATAATTAACAAAACAACCATAAGTTGATATTTTTGTGAATCGAGTATTTCAGCAAAACTACTGCAGTAAGAA [TG A16C G24T T32G A33C T76A T78A T84A C87A] | -0.658 ± 0.78 | -0.572 ± 0.34
AATGTTGTTGATGCAACCATAAAGTGATATTTAATAATTTTTTATAATCAGCAACTTAACCACAAAACAACCATATATTGATATCTCACAAAACAACCATAAGTTGATATTTTTGTGAATCGAGTATTTCAGCAAAACTACTGCAGTAAGAA [CG A40T] | 0.577 ± 0.12 | 0.279 ± 0.021
AATGTTGTTGATGCAACCATAAAGTGATATTTAATAATTATTTATAATCAGCAACTTAACCACAAAACAACCATATAGGTCTATCTCACAAAACAACCATAAGTTGATATTTTTGTGAATCGAGTATTTCAGCAAAACTACTGCAGTAAGAA [CG T78G T79G G80T A81C] | -3.25 ± 1.3 | -2.44 ± 0.79
AATGTTGTTGATGCAACCATAAAGAGATATTTAATAATTATTTATAATCAGCAACTTAACCACAAAACAACCATATATTGATATCTCACAAAACAACCATAAGTTGATATTTTTGTGAATCGAGTATTTCAGCAAAACTACTGCAGTAAGAA [CG T25A] | -0.158 ± 0.68 | -0.346 ± 0.3
AATGTTGTTGATGCAACCATAAAGTGATATTTAATAATTATTTATAATCAGCAACTTAACCACAAAACAACCATATATTGATATCTCACAAAACAACCATAAGTTGATATGGGGGTGAATCGAGTATTTCAGCAAAACTACTGCAGTAAGAA [CG T111G T112G T113G T114G] | -0.443 ± 0.72 | -0.798 ± 0.34
AATGTTGTTGATGCAACCATAAAGTGATATTTAATAATTATTTATAATCAGCAACTTAACCACAAAACAACCATATATTGATATCTCACAAAACAACCATACTGGGATATTTTTGTGAATCGAGTATTTCAGCAAAACTACTGCAGTAAGAA [CT A102C T104G T105G] | -1.62 ± 0.69 | -1.98 ± 0.87
AATGTTGTTGATGCACCCATAAATTGATAATTAATAATTATTTATAATCAGCAACTTAACCACAAAACACCCATAAATTGATAATTAACAAAACAACCATATATTGATATCTCTGTGAATCGAGTATTTCAGCAAAACTACTGCAGTAAGAA [TA A16C G24T T30A A70C T76A T84A C87A A102T T111C T113C] | -0.517 ± 1.4 | -0.107 ± 0.55
AATGTTGTTGATGCAACCATAAAGTGATAACTAATAATTATTTATAATCAGCAACTTAACCACAAAACAACCATATCTTGATATCTCACAAAACAACCATAAGTTGATATTTTTGTGAATCGAGTATTTCAGCAAAACTACTGCAGTAAGAA [CG T30A T31C A77C] | -0.793 ± 0.14 | -0.48 ± 0.16
AATGTTGTTGATGCAACCATAAAGTGATATTTAATAATTATTTATAATCAGCAACTTAACCACAAAACAACCATATATTGATATCTCACAAAACAACCATAAGTTGATATTTTTTGTCCGATCTGATTTCAGCAAAACTACTGCAGTAAGAA [CG G115T T116G G117T A118C A119C T120G C121A G122T A123C G124T T125G] | 0.199 ± 0.37 | 0.000247 ± 0.072
AATGTTGTTGATGCAACCATAAAGTGATATTTAATAATTATTTATAATCAGCAACTTAACCACAAAACAACCATATATTGATATCTCACAAAACAACCATAAGTTGATATTTTTGTGATTCGAGTATTTCAGCAAAACTACTGCAGTAAGAA [CG A119T] | 0.893 ± 0.42 | 0.51 ± 0.29
AATGTTGTTGATGCAACCATAAAGTGATATTTAATAATTATTTATAATCAGCAACTTAACCACAAAACAACCATATATTGATATCTCACAAAAACCACATAAGTTGATATTTTTGTGAATCGAGTATTTCAGCAAAACTACTGCAGTAAGAA [CG C94A A95C A96C C97A] | -1.9 ± 0.51 | -1.87 ± 0.78
AATGTTGTTGATGCAACCATAAAGTGATATTTAATAATTATTTATAATCAGCAACTTAACCACAAAACAACCATATATTGATATCTCAGTAAACAACCATAAGTTGATATTTTTGTGAATCGAGTATTTCAGCAAAACTACTGCAGTAAGAA [CG C89G A90T] | 0.739 ± 0.17 | 0.378 ± 0.24
AATGTTGTTGATGCAACCATAAAGTGATATTTAATAATTATTTATAATCAGCAACTTAACCACAAAACAACCATATATGTCGATCTCACAAAACAACCATAAGTTGATATTTTTGTGAATCGAGTATTTCAGCAAAACTACTGCAGTAAGAA [CG T79G G80T A81C T82G] | -2.43 ± 1.1 | -2.68 ± 0.95
AATGTTGTTGATGCAACCATAAAGTGATATTTAATAATTATTTATAATCAGCAACTTAACCACAAAACAACCATATATTGATATCTCACAAAACAACCATAAGTTGATATTTAACAGAATCGAGTATTTCAGCAAAACTACTGCAGTAAGAA [CG T113A T114A G115C T116A] | -0.0852 ± 0.079 | 0.0572 ± 0.12
AATGTTGTTGATGCAACCATAAAGTGATATTTAATAATTATTTATAATCAGCCACTTAACCACAAAACAACCATATATTGATATCTCACAAAACAACCATAAGTTGATATTTTTGTGAATCGAGTATTTCAGCAAAACTACTGCAGTAAGAA [CG A53C] | -0.195 ± 0.56 | -0.278 ± 0.078
AATGTTGTTGATGCAACCATAAAGTGATATTTAATAATTATTTATAATCATAAACTTAACCACAAAACAACCATATATTGATATCTCACAAAACAACCATAAGTTGATATTTTTGTGAATCGAGTATTTCAGCAAAACTACTGCAGTAAGAA [CG G51T C52A] | 0.348 ± 0.34 | 0.159 ± 0.19
AATGTTGTTGATGCAACCATATATTGATATCTCATAATTATTTATAATCAGCAACTTAACCACAAAACACCCATAAATTGATAATTAACAAAACAACCATAAAGTGATATTTATGTGAATCGAGTATTTCAGCAAAACTACTGCAGTAAGAA [TA A22T G24T T31C A33C A70C T76A T84A C87A T104G T113A] | -0.566 ± 0.36 | -0.81 ± 0.5
AATGTTGTTGATGCAACCATAAAGTGATATTATTAAATTATTTATAATCAGCAACTTAACCACAAAACAACCATATATTGATATCTCACAAAACAACCATAAGTTGATATTTTTGTGAATCGAGTATTTCAGCAAAACTACTGCAGTAAGAA [CG T32A A33T A34T T35A] | 0.141 ± 0.33 | -0.0669 ± 0.14
AATGTTGTTGATGCAACCATAAAGTGATATTTAATAATTATTTATAATCAGCAACTGCACCACAAAACAACCATATATTGATATCTCACAAAACAACCATAAGTTGATATTTTTGTGAATCGAGTATTTCAGCAAAACTACTGCAGTAAGAA [CG T57G A58C] | -1.37 ± 0.37 | -1.45 ± 0.67
